Data from the DeepSol protein solubility set.

assay: soluble on expression in E. coli; label from the status in PepcDB or PDB records

Row | Sequence | soluble on expression in E. coli
1 | MSILQKLENSAAAAVKALYGTDPMEGQIQLQKTKREFKGHLTLVVFPFVKMSRKSPEATATEIGEWLLANESAVSAIEVVKGFLNLTIAPRVWLELLNEIRADINFGHKVATEDSPLVMVEYSSPNTNKPLHLGHVRNNLLGYSLSEIMKANGYRVVKTNIVNDRGIHICKSMLAWQKWGDGVTPEKAGKKGDHLIGDFYVLFDKHYKAELNSLMAEGKSKEEAEAASTLMAEAREMLRLWEAGDEKVVDLWRTMNQWVYDGFDATYKMMGVDFDKIYYESETYLVGKEEVLRGLEEGLFVKHSDGSVWADLTKDGLDEKLLLRADGTSVYMTQDIGTAKMRFNDYPINRMIYVVGNEQNYHFQVLSILLDRLGFEFGKGLVHFSYGMVELPEGKMKSREGTVVDADDLMDEMIRTAAEIAAEAGKAAEMDEEESREVARIVGLGSLKYFILKVDPRKNMTFNPKESIDFNGNTGSFVQYTYARIRSLMRRAEAAGYDIPSQLPTDLPLSEKEEALIQKVSEYAEVVSEAGHSYSPALIANYIYDLVKEYNQFYHDFSVLKEEDERIRAFRLALSEVVALTMRKGFALLGIEMPERM | not soluble
2 | MGSDKIHHHHHHAICLRDDIGNYVIKWETDPVMEGIVKMTVSDNPDLFTNESPIIYANIKDGVATYITNDNISRKYFRLSFNDKYPRIIGARSAVMDSVQNFRDLGGYTSTNGKTVKWGKVFRSGELSSLSEWDSIRLDNLGIKTIIDLRTNQETLTAPIKYTKANILQIPISVGKIADAPQRVIEGRMRKGDAGVYMEDEYLQFVTDNTDQFAKVLEQFQNEDNYPILISCSYGKDRTGFLTAMLLAALDIPRDAIMEDYLTSNQYIDTSHLADIVKHLSTDAQESITVFLTANEGLMDLAFHKIKKEYGSTEKYLSKGLRLTDKKRERLKDILLY | not soluble
3 | MAEQLEFFPVASPCRGICQSDERGFCRGCMRSRDERFNWQKMSDVEKQNVLRLCRQRFLRKIRANKPLPSEDPQQPSLF | not soluble
4 | MGEIIKESDKRVALKLPANVTEIDDRAFLGCTRLESIDLSACTSLTAIKLAAFKGCTSLKAVQLPQSLTTIGHFAFEGCTALKEVELPQNLTVIGTDAFKGCSIETLVIHCDIKGTIIENFTKKDEVNKNVKKLTLGKGVTTIGNYAFYIIGYSKLAAVDFSACTALTEIGENAFAYSKLTNVNLSACIKLTEIGKSAFSNCTDLTNVDLSGCTALTTIGEQAFNSCYEATVKLPTGITAIGNEAFGENDEDFLCKNVLIPRSHAATIKPLVTASDYPEDRIREY | not soluble
5 | RQPEVRGGDTLNVFLAYVPEDAKAMMTTPFEAYLVNDSNYYLYYTYLSAEGKAWNNRSHGLVEPNTKLLLEEFTKDVLNEMERVAVQLIAFKDGKPAAIKPAVSVELRIDTVKFYKLHTFSASDFFEEPALIYDIVKDDVPAKQVYV | soluble
6 | MEFAKMCFEKLYGVDTSEAKEMYNSVYDVMKAMLKEYTVIFKGPNTQSSQSNPPSSTAARDIFACELAEDSNVEFERMDRSYKEMVNEIRVTDPKDELDIYLKAEVENPKTLPGMEWDVLSWWRLNSQKYPVLSEIARDVLAMQVSYVASESAFSTSGRLLEPSRSCLTHYMVETLVCLEQWLKSEIKLSENTFLTNTQLLADIELLDKLEKGNFIYVVY | soluble
7 | MGSKVAGKKKTQNDNKLDNENGSQQRENINTKTLLKGNLKISNYKYLEVIQLEHAVTKLVESYNKIIELSPNLVAYNEAVNNQDRVPVQILPSLSRYQLKLAAELKTLHDLKKDAILTEITDYENEFDTEQKQPILQEISKADMEKLEKLEQVKREKREKIDVNVYENLNEKEDEEEDEGEDSYDPTKAGDIVKATKWPPKLPEIQDLAIRARVFIHKSTIKDKVYLSGSEMINAHNERLEFLGDSILNSVMTLIIYNKFPDYSEGQLSTLRMNLVSNEQIKQWSIMYNFHEKLKTNFDLKDENSNFQNGKLKLYADVFEAYIGGLMEDDPRNNLPKIRKWLRKLAKPVIEEATRNQVALEKTDKLDMNAKRQLYSLIGYASLRLHYVTVKKPTAVDPNSIVECRVGDGTVLGTGVGRNIKIAGIRAAENALRDKKMLDFYAKQRAAIPRSESVLKDPSQKNKKRKFSDTS | soluble
8 | MGHHHHHHSHMSIRNWVTRTPSSSPPITPPASETKIMSPRKALTPVSQKSSQAEACSESRNRVKRRLDSSCLESVKQKCVKSCNCVTELDGQVENLHLDLCCLAGNQEDLSKDSLGPTKSSKIEGAGTSISEPPSPISPYASESCGTLPLPLRPCGEGSEMVGKENSSPENKNWLLAMAAKRKAENPSPRSPSSQTPNSRRQSGKTLPSPVTITPSSMRKICTYFHRKSQEDFCGPEHSTEL | not soluble
9 | MGSDKIHHHHHHMHLAAEQMNLSQPAVSKMLKEIEGLLGFQVFERLPRNMPVTALGEHVIRYAQRVLNDAKHFVEDIEILRLGGHGFLKVGGIFAATAVVIPNSIIEIKKQWPLLSIDVVEQTSDHLMEMLSEHTLDLAIGRFTDVTQSQFFDFQPLGPEPFCIVVNNAHPCAQKKFCTLEELLKWPWVLYPKGTPIRERMEGAFARAKVKIPLNTVNTMSMQTFLQILKGAPMVGMLPEAMVIDQVKEGQLQILETDLILDAQDYGILTRKDEPVSDIAAAFINILLKNAKRK | not soluble
10 | MNLSFKINSMYICVHNMDRAINFYENLFNCKVTGKDEIYSVFDINGFRYGLFANKKTGEKKIWGNNCLPSFQVNDIDLILEKLKELNCPIVFPLTNIGKNKVLEFTDCEGNAIEITSPIKLEHHHHHH | not soluble
11 | MGSDKIHHHHHHMRIAIIAITRNGARLGTQLRDGLGSAELYVLQKFAGQAGTGAVPFAGELKGLVAELWPAFDGFVFIMATGIVVRMVAPHLVAKDLDPAVVVMDDAGKFAVSLLSGHLGGANELACRCAFVTGAREVITTATDANNLPSFDMLAKEEGWAIDDLCRVKTLNALILEGEEIAVVDPTDRVRTAFHGTARLTFHDTFVEALQSGAKGFVFVTNRRLPPQAQADSLLILRPRNLALGIGCNSGTGAEEIAAVVGAQMKRLFLSLKSVACIGSAVAKQDEAGLLAFAREHGLPLRFFESGELNSVTVPSPPSAHALEAIGATGVAEPAAVLASNGGRLLLKKIKSGNVTLAIAEIP | not soluble
12 | AIATSCHIAEEHIQKVAIFGGTHGNELTGVFLVKHWLENGAEIQRTGLEVKPFITNPRAVKKCTRYIDCDLNRIFDLENLGKKMSEDLPYEVRRAQEINHLFGPKDSEDSYDIIFDLHNTTSNMGCTLILEDSRNNFLIQMFHYIKTSLAPLPCYVYLIEHPSLKYATTRSIAKYPVGIEVGPQPQGVLRADILDQMRKMIKHALDFIHHFNEGKEFPPCAIEVYKIIEKVDYPRDENGEIAAIIHPNLQDQDWKPLHPGDPMFLTLDGKTIPLGGDCTVYPVFVNEAAYYEKKEAFAKTTKLTLNAKSIRCCLH | soluble
13 | MYETYHSGWIETITGSMFSGKSEELIRRLRRGIYAKQKVVVFKPAIDDRYHKEKVVSHNGNEIEAINISTAQEILNHKLEEVNVIGIDEVQFFEDDIVNIVEKLAENGHRVIVAGLDMDFRGEPFKPMPKLLAVSEHITKLQAVCSVCGSPSSRTQRLINGEPAKVDDPIILVGANESYEPRCRAHHIVAPSENEKEEMLEHHHHHH | not soluble
14 | ALLITKKCINCDMCEPECPNEAISMGDHIYEINSDKCTECVGHYETPTCQKVCPIPNTIVKDPAHVETEEQLWDKFVLMHHADKI | soluble
15 | MEHLGKVFREFRTSGNYSLKEAAGESCSTSQLSRFELGESDLAVSRFFEILDNIHVTIENFMDKARNFHNHEHVSMMAQIIPLYYSNDIAGFQKLQREQLEKSKSSTTPLYFELNWILLQGLICQRDASYDMKQDDLGKVADYLFKTEEWTMYELILFGNLYSFYDVDYVTRIGREVMEREEFYQEISRHKRLVLILALNCYQHCLEHSSFYNANYFEAYTEKIIDKGIKLYERNVFHYLKGFALYQKGQCKEGCKQMQEAMHIFDVLGLPEQVAYYQEHYEKFVKS | not soluble
16 | MKTNPAVDSARLGLLLNELRLPAIKVMWPQFAERADKEGWPAARFLAAIIEHELAERDRRRIERHLAEARLLPGKTLDTFEFEAVPMISKAQVMAITAGDSWLEKGANLLLFGPPGGGKSHLASAIGLALIETGWRVMFTRTTDLVQKLQVARRELGLEAAINRLDRFHLLILDDLAYVTKDQAETSVLFELISARYERRSLLITANQPFGEWGKVFPDPSNARYPCCAAALEHHHHHH | not soluble
17 | MSLKTITTFENKKVLVLGLARSGEAAARLLAKLGAIVTVNDGKPFDENPTAQSLLEEGIKVVCGSHPLELLDEDFCYMIKNPGIPYNNPMVKKALEKQIPVLTEVELAYLVSESQLIGITGSNGKTTTTTMIAEVLNAGGQRGLLAGNIGFPASEVVQAANDKDTLVMELSSFQLMGVKEFRPHIAVITNLMPTHLDYHGSFEDYVAAKWNIQNQMSSSDFLVLNFNQGISKELAKTTKATIVPFSTTEKVDGAYVQDKQLFYKGENIMSVDDIGVPGSHNVENALATIAVAKLAGISNQVIRETLSNFGGVKHRLQSLGKVHGISFYNDSKSTNILATQKALSGFDNTKVILIAGGLDRGNEFDELIPDITGLKHMVVLGESASRVKRAAQKAGVTYSDALDVRDAVHKAYEVAQQGDVILLSPANASWDMYKNFEVRGDEFIDTFESLRGEGHHHHHH | soluble
18 | MNAHEIDYRLYGDDMQFVEIELDPYESVVAEAGGMMMMDDGIVMETVFGDGSSSGKGLLGRLVGAGKRLLTGESLFMTVFTNQGSGKRRVAFAAPYPGKIIPVDLSELGGKLICQKDSFLCAAKGVSVGIEFQRKLGAGFFGGEGFIMQKLEGDGLAFLHAGGTIHRRDLQPGETLRIDTGCLVAMTKDVNYDIEYVGSIKTAFFGGEGLFLATVTGPGAVWVQSLPFSRLADRVLAAAPSAGGRSVGEGSILGGIGDWLDGDD | not soluble
19 | MSKATYKERAATHPSPVAAKLFNIMHEKQTNLCASLDVRTTKELLELVEALGPKICLLKTHVDILTDFSMEGTVKPLKALSAKYNFLLFENRKFADIGNTVKLQYSAGVYRIAEWADITNAHGVVGPGIVSGLKQAAEEVTKEPRGLLMLAELSCKGSLATGEYTKGTVDIAKSDKDFVIGFIAQRDMGGRDEGYDWLIMTPGVGLDDKGDALGQQYRTVDDVVSTGSDIIIVGRGLFAKGRDAKVEGERYRKAGWEAYLRRCGQQN | soluble
20 | MGSDKIHHHHHHMVQSLKVILWGEEIGRLAWDARRRLSYFMYNPAFLKKGLNISPLAAPVDGARGLMPVWGEEAKIYQKLPAFLADSLPDSWGNQLFELWRQQNHLSNADITPLDKLSFIGKRGMGALEFLPEVSRERKAEKIDIKSLANLAERIFSERENARILPEESVTMQSLLTVGTSAGGRQPKAIVAINLKNGEVRSGQISGLEEFDYYLVKFGNSQYSSAELEMSYYELATMAGINMMPSKLYQVDGNNHFMTKRFDRNHGKKIHTQTLAAISPDADSYEQLITVCRKLHLPETDCYEVFRRMVFNVLANNTDDHNKNFSFVMSEDGTWRLSPAYDVTYIFDNGGFLPNEDHCMYIRAKLRNITREDVIQFAKDNGIRRPDAIIRDIVNAMKQFRTVATKYGVAEQWVGRVENTIVDRLKSWRELEEMAPEICELVINGHIIKNIRIEQAYKGNFHLLAEIDGHERKFIIGKNKEEFSLIESMGIANLSSNQLKDMVEKYFIHLKV | not soluble
21 | MAGDPMTMRVCYRCGISEEEGGPLINGLCQVCFRKENPVLLLPSEINTELCQNCGSYKKRGVWIDPQNYELESLIFEVAENALLEALEESLDKVKEFEVVPWEELENINNIPVGKAFVGFIPVDYHIQYFPAVIVYRVRVKARLHELQLEPHDEIKETTVYVRQTVCPRCQRFLAGYYEAILQVRVEDREFTKEEREAVTKLVQEKVDEIMKKDRMGFIQDTIEKEEGIDFYMGSTSAARKLANVIREHFGGEISEAYELVGLDRMTSKEVYRTSVTVRLPKFRRGDIVEDRHGRIYKVENVSGKGMRLKNLETWESQHYDWKTIKREKIDKAEHEEKKALLISQTPREAQFMDMSTYETFEVLKPGVNLEEGQLYRLVKVKGRFYIKEKEGEELEHHHHHH | not soluble
